The text below walks through data of publication PMC5016687, “The Effectors and Sensory Sites of Formaldehyde-responsive Regulator FrmR and Metal-sensing Variant” (The Journal of Biological Chemistry, 2016).

The target in series [1] is RcnR (Salmonella enterica, UniProt Q7CPV3). In words: biochemical.
Series [2] concerns the target T1, FrmR (Salmonella enterica, UniProt A0A0H3NLH8, P2S).
T1 construct: gene SL1344_1558
Put plainly: biochemical.

Series [3] addresses T2, FrmR (Salmonella enterica, UniProt A0A0H3NLH8, C35A).
T2 construct: gene SL1344_1558
In words: biochemical.

The target of series [4] is T3, FrmR (Salmonella enterica, UniProt A0A0H3NLH8).
T3 construct: gene SL1344_1558
In words: biochemical.

Series [5] deals with FrmR^E64H (Salmonella enterica serovar Typhimurium FrmR with Glu64 to His) (Salmonella enterica serovar Typhimurium strain SL1344). Put plainly: crystal structure; FrmR E64H 0.5 mM in 400 mM NaCl, 1 mM EDTA, 1 mM DTT, 10 mM HEPES pH 7.0; crystals in 20 mM NaCl, 23% (w/v) PEG 4000, 10 mM BisTris pH 6.5, hanging drop vapor diffusion at 20 °C; one homotetramer in the asymmetric unit; 2.19 Å.

The next series deals with FrmRE64H (Salmonella enterica serovar Typhimurium …, UniProt A0A0H3NLH8 2-91, E64H). In words: fluorescence anisotropy; 5 mM EDTA, apo; 10 mM HEPES pH 7.0, 60 mM NaCl, 240 mM KCl, 5 mM EDTA (or 5 uM NiCl2/CoCl2), 25 C, 10 nM DNA; anaerobic except FrmRC35A; Kd per tetramer (two nondissociable tet). Conditions: protein: recombinant; chain copies: 8.
The target of the next series is FrmRP2S (Salmonella enterica serovar Typhimurium …, UniProt A0A0H3NLH8 1-91, P2S). The description is as above. Conditions: protein: recombinant; chain copies: 8.
Series [6] deals with FrmR (Salmonella enterica serovar Typhimurium …, UniProt A0A0H3NLH8 2-91). Put plainly: fluorescence anisotropy; 800 uM GSH, 5 mM EDTA; 10 mM HEPES pH 7.0, 60 mM NaCl, 240 mM KCl, 5 mM EDTA (or 5 uM NiCl2/CoCl2), 25 C, 10 nM DNA; anaerobic except FrmRC35A; Kd per tetramer (two nondissociable tet). Conditions: protein: recombinant; chain copies: 8.
The target in another series is RcnRS2P (Salmonella enterica serovar Typhimurium …, UniProt Q7CPV3 1-90, S2P). Put plainly: fluorescence anisotropy; 5 mM EDTA, apo; 10 mM HEPES pH 7.0, 60 mM NaCl, 240 mM KCl, 5 mM EDTA (or 5 uM NiCl2/CoCl2), 25 C, 10 nM DNA; anaerobic except FrmRC35A; Kd per tetramer (two nondissociable tet). Particulars: protein: recombinant; chain copies: 8; label: 5'-HEX on strand 1; blunt.

The target of series [7] is T4, RcnR (Salmonella enterica serovar Typhimurium …, UniProt Q7CPV3 1-90).
T4 sequence: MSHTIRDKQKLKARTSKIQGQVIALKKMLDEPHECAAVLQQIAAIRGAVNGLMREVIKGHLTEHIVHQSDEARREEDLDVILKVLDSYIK
The description is as above. Conditions: protein: recombinant; chain copies: 8; label: 5'-HEX on strand 1; blunt.

Bounds are passed on as bounds.

On to `C=O` [formaldehyde], for which the dissociation constant (Kd) was more than 100000 nM at RcnR [1], more than 50000 nM on FrmR [2], more than 100000 nM at FrmR [3] and 10000 to 20000 nM on FrmR [4].
The molecule “FrmR^E64H (Salmonella enterica serovar Typhimurium FrmR with Glu64 to His) (natural protein)” had a stoichiometry N in series [5] of 4.

B1: frmRAPro (dsDNA)
DNA 1: TTCTGATAGTATACCCCCCTATAGTATATGGAG
DNA 2: CTCCATATACTATAGGGGGGTATACTATCAGAA
On to B1, for which the binding result in the series with FrmRE64H is “binds”. Moreover, the Kd with FrmRP2S is 150 nM. Besides, in the series with FrmR [6], the binding signal was approximately 2.5 fold tighter Kd vs apo.

B2: rcnRAPro (dsDNA)
DNA 1: TACTCCCCCCCAGTATAGAATACTACCCCCCAGTA
DNA 2: TACTGGGGGGTAGTATTCTATACTGGGGGGGAGTA
B2: the dissociation constant Kd with RcnRS2P is 160 nM; with RcnR [7] it was 150 nM.
